Our source for the Kd values is patent US20190127478A1 (published 2019).

Some targets named below: FcgRIIIaV; FcRn; FcgRIa.
What all share (assay): Octet RED 96
In general terms: BLI is a label-free optical method that tracks binding on a fibre tip over time.

B1: BCD-100 IgG1* (antibody)
heavy: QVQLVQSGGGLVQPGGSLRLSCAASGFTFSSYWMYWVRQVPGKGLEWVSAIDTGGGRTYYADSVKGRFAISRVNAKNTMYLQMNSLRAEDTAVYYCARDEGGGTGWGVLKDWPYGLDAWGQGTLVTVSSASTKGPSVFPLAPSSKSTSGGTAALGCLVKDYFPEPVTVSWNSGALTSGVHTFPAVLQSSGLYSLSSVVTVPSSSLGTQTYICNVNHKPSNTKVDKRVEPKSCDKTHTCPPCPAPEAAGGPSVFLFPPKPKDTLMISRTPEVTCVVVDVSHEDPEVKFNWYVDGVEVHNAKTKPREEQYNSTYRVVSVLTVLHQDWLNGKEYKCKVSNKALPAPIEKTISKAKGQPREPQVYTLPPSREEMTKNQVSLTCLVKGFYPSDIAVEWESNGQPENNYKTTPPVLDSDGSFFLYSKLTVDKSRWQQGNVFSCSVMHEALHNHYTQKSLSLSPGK
light: QPVLTQPLSVSVALGQTARITCGGNNIGSKNVHWYQQKPGQAPVLVIYRDSNRPSGIPERFSGSNSGNTATLTISRAQAGDEADYYCQVWDSSTAVFGTGTKLTVLQRTVAAPSVFIFPPSDEQLKSGTASVVCLLNNFYPREAKVQWKVDNALQSGNSQESVTEQDSKDSTYSLSSTLTLSKADYEKHKVYACEVTHQGLSSPVTKSFNRGEC
As usually defined, the Kd is the concentration at which binding is half-saturated. Read a high Kd as lower affinity. Regarding B1, the Kd with FcgRIIIaV is 740 nM; in the assay with FcRn, 9.6 nM; with FcgRIa it was 750 nM.
